Source: the supplement of paper PMC12764529
± gives the half width of the 95% confidence interval.

Assays:
[1] = folding stability dG unfold from chymotrypsin proteolysis; higher = more stable
Description: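 Folding stability of de novo designed mini-proteins (<80 aa, no Cys; designed by TrROS, TrMRF, ProteinMPNN and the joint model) was measured by cDNA display proteolysis with trypsin and chymotrypsin. Each protease was used at 11 concentrations in a threefold dilution series plus a no-protease condition. K50 was inferred by Bayesian fitting of sequencing counts, and dG unfold was derived against a sequence-predicted unfolded-state K50 (Tsuboyama et al. method). Sequences shown include variable-length N-terminal GS-type padding (SAGGSAGG...) inside a display construct carrying a PA tag. Rows were kept only if the AF2 dimer inter-PAE was >15, to exclude likely homo-oligomers.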

[2] = folding stability dG unfold (combined trypsin and chymotrypsin); higher = more stable
Summary of the method: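 Designed mini-proteins with no cysteine and under 80 residues were kept only if AlphaFold2 dimer inter-PAE was above 15. In a PA-tagged cDNA display construct, they were digested with trypsin and chymotrypsin and then sequenced. K50 was inferred by Bayesian fitting of counts, and unfolding free energy was derived per protease or combined against a sequence-predicted unfolded-state K50 and a shared folded-state K50.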

## SAGGSAGGSAGGSRYLRIETDRIDDVVEAALKTPGVEEVRVDTPADDRFYVLVKVPDEVSAGGSAGGSAGGS [r4_1_TrMRF]
[1]
  folding stability dG unfold: -1.13 ± 0.92 kcal/mol
[2]
  folding stability dG unfold: < -1 kcal/mol

## SAGGSAGGSPGVRVKPVGDHYVVEIPLPPSVPLGRAVFEVEGGYAETVAVDPERGIATVRVPLSAGGSAGGS [r12_675_TrMRF]
[1]
  folding stability dG unfold: 0.091 ± 0.11 kcal/mol
[2]
  folding stability dG unfold: -0.352 ± 0.15 kcal/mol

## SAGAAAIAEKLGFSPELVEILSVEDVEYTIVVRRTGEPVKMKRPTVKVLVTDPSVPKETTAEVPVAELASAG [r5_517_JUSTAS]
[1]
  folding stability dG unfold: -0.807 ± 0.57 kcal/mol
[2]
  folding stability dG unfold: -0.714 ± 0.35 kcal/mol

## SAGGSAGGSAREELVRRAAEEGLPGVRVLAIPPGNREVPAIVEGDKVYSYDLPDDAEVVVASAGGSAGGSAG [r3_244_TrMRF]
[1]
  folding stability dG unfold: 0.408 ± 0.08 kcal/mol
[2]
  folding stability dG unfold: -0.0679 ± 0.086 kcal/mol

## SAGGSMTVVTVEARPPDSSETTVTPLTETAPDGRPRAISLEEARARLAAEPDRPVTRVTVRPEAAASAGGSA [r2_192_JUSTAS]
[1]
  folding stability dG unfold: 0.452 ± 0.057 kcal/mol
[2]
  folding stability dG unfold: 0.0975 ± 0.15 kcal/mol

## SAGGSAGGGSMDPKVETEEFEEPGREVKREKLPDGLVVTEYTEPDGPKSTVVTDPETGKVTVIGSAGGSAGG [r6_159_JUSTAS]
[1]
  folding stability dG unfold: 0.653 ± 0.079 kcal/mol
[2]
  folding stability dG unfold: 0.082 ± 0.15 kcal/mol

## SAGGSAGGSANQVKVEIEIPRMKMERDPDGGYQMEMRPVKIEIEAPMPEEQADDIAKDLIKSAGGSAGGSAG [r3_487_TrROS]
[1]
  folding stability dG unfold: 0.579 ± 0.045 kcal/mol
[2]
  folding stability dG unfold: 0.0639 ± 0.16 kcal/mol

## SAGGMTETATTTTTLPDGTVVTTGTTTVTEGSSTTTTTFTTVTTVAPVPPPPYPPAPLPWPEDPVLASAGGS [r8_269_JUSTAS]
[1]
  folding stability dG unfold: 0.142 ± 0.15 kcal/mol
[2]
  folding stability dG unfold: < -1 kcal/mol

## SAGGSAMPRSSVSIVSVERAPDGTVTIPTKTTLTTPDGTVTTEESTVTLEVPPGRELSEEEIKKLLSAGGSA [r15_836_JUSTAS]
[1]
  folding stability dG unfold: 0.983 ± 0.017 kcal/mol
[2]
  folding stability dG unfold: 0.53 ± 0.11 kcal/mol

## SAGGSAGGSAGGMYIPGDLVEWVSPVGDKWRVGLIGKPQTFDWKDIPAPSNENIVFVPGSAGGSAGGSAGGS [r10_665_TrMRF]
[1]
  folding stability dG unfold: -0.392 ± 0.29 kcal/mol
[2]
  folding stability dG unfold: < -1 kcal/mol

## SAGGSAGGSAGMPLEELAQEALNQFQENGEPVEIDIEVETPNGEYFPFEVEINGDGLKIRSAGGSAGGSAGG [r11_954_TrROS]
[1]
  folding stability dG unfold: 0.455 ± 0.068 kcal/mol
[2]
  folding stability dG unfold: -0.0909 ± 0.32 kcal/mol

## SAGSEVTLEITLTREVPSGKPVTLTETKTVPLAPSVPVEEVIKALKSPEWTAKVTLYTDGTPVTELTLDSAG [r5_278_JUSTAS]
[1]
  folding stability dG unfold: 0.604 ± 0.064 kcal/mol
[2]
  folding stability dG unfold: 0.176 ± 0.069 kcal/mol

## SAGGSAGGSAGGPIEEILASLPPNATVKVSRVVKLTTPDGSLSSIEVEEVITVKKPEKALSAGGSAGGSAGG [r11_347_JUSTAS]
[1]
  folding stability dG unfold: 0.655 ± 0.02 kcal/mol
[2]
  folding stability dG unfold: 0.287 ± 0.13 kcal/mol

## SAGGSAMTEEEFETEFSDPNNSLSTKVKTTRYLEGDTPVVKTTYTTEDPNTGSTYTTEKVTVIPKKSAGGSA [r15_960_JUSTAS]
[1]
  folding stability dG unfold: -0.218 ± 0.18 kcal/mol
[2]
  folding stability dG unfold: -0.891 ± 0.29 kcal/mol

## SAGGSAGGSAGGSDDGSGVRLETFTVTGKGATVTLPDGSTLTVPADQTVTVTRLEVLPKSAGGSAGGSAGGS [r4_26_TrMRF]
[1]
  folding stability dG unfold: -0.509 ± 0.23 kcal/mol
[2]
  folding stability dG unfold: < -1 kcal/mol

## SKPMPADELMEQHPNMIMIRTPNDKHIFINPEENEIFRFNPDEGRVYWIPGTLEEIEELVPDNGFEIWPFSA [r9_721_TrROS]
[1]
  folding stability dG unfold: 0.536 ± 0.21 kcal/mol
[2]
  folding stability dG unfold: 0.286 ± 0.22 kcal/mol

## SAGMTFEEEFVEEVDGGEMVKTKTLYEYDPSTNSITVLEEEVEKIPLPEVAPAPAPPEAMEERGAPGALSAG [r5_393_JUSTAS]
[1]
  folding stability dG unfold: 0.254 ± 0.093 kcal/mol
[2]
  folding stability dG unfold: -0.115 ± 0.09 kcal/mol

## SAGGSAGGSAGGGPMIYTEETVEEVVKVGEKSIKRTVTTTKVEVPGKPGVVLETKVDWGGSAGGSAGGSAGG [r7_795_JUSTAS]
[1]
  folding stability dG unfold: 0.837 ± 0.024 kcal/mol
[2]
  folding stability dG unfold: 0.312 ± 0.092 kcal/mol

## SAGGSAGGSARIRFPNGYEIEVPRKRNPDGNLEITIESRNPDNPEHREMAKKIARDIADELSAGGSAGGSAG [r3_163_TrROS]
[1]
  folding stability dG unfold: -0.0805 ± 0.06 kcal/mol
[2]
  folding stability dG unfold: -0.526 ± 0.17 kcal/mol

## SAPMTPAERARPRIKKLVNLLAEDGNFKVDIERDPGDPGVVVTIKLDPNSREKFAERLGIPRDELYDLISAG [r14_688_TrROS]
[1]
  folding stability dG unfold: -0.0457 ± 0.23 kcal/mol
[2]
  folding stability dG unfold: -0.373 ± 0.41 kcal/mol

## SAGGSMSTTLPDGGKVTVYSDPNKPLTLVEVELPDRRLVVLRPVSAPEDGTIVAPVEVRPLEEVEEASAGGS [r16_85_JUSTAS]
[1]
  folding stability dG unfold: -0.0108 ± 0.18 kcal/mol
[2]
  folding stability dG unfold: < -1 kcal/mol

## SAGGSAGGSPPPVPLSTLAVEPDPATGGKFTVLLAYPDGSTRELTSEEEAAALPNFDLERRLASAGGSAGGS [r20_192_JUSTAS]
[1]
  folding stability dG unfold: 0.443 ± 0.2 kcal/mol
[2]
  folding stability dG unfold: -0.0474 ± 0.21 kcal/mol

## SAGGKPGEPVKIKMRGPDGQPMTFPFYAPEPVKIKMNNPGEEHEHTIPPGEPLTFPLPPGDIEVEPVSAGGS [r16_456_TrROS]
[1]
  folding stability dG unfold: 0.315 ± 0.2 kcal/mol
[2]
  folding stability dG unfold: -0.171 ± 0.2 kcal/mol
